{"source": "patent US6362326B1", "about": "“11 cby genomic sequence” (SmithKline Beecham Corporation, priority 1998, dated 2002)", "target": "11cby polypeptide of SEQ ID NO: 2 (Homo sapiens, UniProt Q99705)", "sequence (Q99705 whole entry)": "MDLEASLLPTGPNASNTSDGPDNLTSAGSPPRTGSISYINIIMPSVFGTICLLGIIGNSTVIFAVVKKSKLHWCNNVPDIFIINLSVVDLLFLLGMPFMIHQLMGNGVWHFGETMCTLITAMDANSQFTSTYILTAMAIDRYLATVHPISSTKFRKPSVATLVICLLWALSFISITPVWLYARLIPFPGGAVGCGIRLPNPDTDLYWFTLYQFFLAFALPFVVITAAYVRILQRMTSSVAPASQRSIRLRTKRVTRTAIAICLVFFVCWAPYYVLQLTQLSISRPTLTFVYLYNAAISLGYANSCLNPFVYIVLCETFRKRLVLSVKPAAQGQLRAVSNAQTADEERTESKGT", "assay": "binding of 11cby polypeptide to melanin-concentrating hormone", "details": "qualitative statement, method or value not given"}
{"substance": "H-Asp-Phe-Asp-Met-Leu-Arg-Cys-Met-Leu-Gly-Arg-Val-Tyr-Arg-Pro-Cys-Trp-Gln-Val-OH [MCH]", "values": [{"measurement": "binding to 11cby polypeptide (7-transmembrane receptor)", "value": "bind"}]}
